Patent US20180134794A1 (Regeneron, published 2018)

B1: H4H14639D-Maytansinoid A (bispecific antibody, human IgG4, V domains shown)
VH 1: EVQLVESGGGLVQPGTSLRLSCAASGFTFDDYAMHWVRQAPGKGLEWVSGITWNSYNIDYADSVKGRFTISRDNAKNSLYLQMNSLRAEDTALYYCAKDDDYSNYVYFDYWGQGTLVTVSS
VH 2: EVQLVESGGGLVQPGGSLRLSCAASGFIVTTNYMTWLRQAPGKGLEWVSLIYSSGHTYYADSVKGRFTISRHNSKNTLYLQMDSLRAEDTAVYYCASAFAADVFDIWGQGTMVTVSS
VL: not shown
modifications: conjugated with SMCC-DM1 diastereomer (Maytansinoid A); residues and chain of attachment not stated
B2: H4H13318P2 (antibody, human IgG4, V domains shown)
VH: QVQLVESGGGVVQPGRSLRLSCVASGFSFSNFGMHWVRQAPGKGLEWVAIIWYDGSNKYYSDSVKGRFTISRDNSKNTLYLQMNSLRVDDTAVYYCARFDRWKFDAFDIWGQGTMVTVSS
VL: not shown
B3: H4H13300P2 (antibody, human IgG4, V domains shown)
VH: QVQLVESGGGVVQPGRSLRLSCAVSGFTFSSYGMHWVRQAPGKGLEWVANIWYDGTNDYYPYSVKGRFTISRDNSQNTLYLQMNSLRAEDTAVYYCAREDFINYRSFDYWGQGTLVTVSS
VL: not shown
B4: H4H13290P2 (antibody, human IgG4, V domains shown)
VH: QVQLQESGPGLVKPSETLSLTCTVSGDSISSYYWTWIRQPPGKGLEWIGYIFYRGGTTYNPSLKSRVTISVDTSKNQFSLKLRSVTAADTAVYYCARGDDLLVVTSVYWYIDLWGRGTLVTVSS
VL: not shown
B5: H4H13311P2 (antibody, human IgG4, V domains shown)
VH: QVQLVESGGGVVQPGRSLRLSCAASGFTFSSYAMHWVRQAPGRGLEWVAVIWHDGDVEYYVDSVKDRFTISRDNSKSTLYLQMNSLRAEDTALYYCAREAWDLLRPFDYWGQGTLVTVSS
VL: not shown
B6: H4H13331P2 (antibody, human IgG4, V domains shown)
VH: QVQLQESGPGLVKSSETLSLTCTVSGGSIRNFYWSWLRQPPGKGLEWIGHINYNGGTDYNPSLKSRVTISVDTSKNQFSLNLNSVTAADTAVYYCARQRFYGMDVWGPGTTVTVSS
VL: not shown
B7: H4H13299P2 (antibody, human IgG4, V domains shown)
VH: EVQLVESGGGLVQPGGSLRLSCAASGFIFSNYEMNWVRQAPGKGLEWISYITSSGNMKYYADSVKGRFTISRDNDKNSLYLQMSSLRVEDTAVYYCVRGGRFLEWLTYYVMVVWGQGTTVTVSS
VL: not shown
B8: H4H14640D (bispecific antibody, human IgG4, V domains shown)
VH 1: QVQLVQSGTEVKEPGASVKVSCKASGYSFTTYGISWLRQAPGQGLEWMGWISTYNGDTISAQMLQDRVTLTADTSTRTAYMELRSLRSDDTAVYYCARGHEYDSLVYSYWGQGTLVTVSS
VH 2: EVQLVESGGGLVQPGGSLRLSCAASGFIVTTNYMTWLRQAPGKGLEWVSLIYSSGHTYYADSVKGRFTISRHNSKNTLYLQMDSLRAEDTAVYYCASAFAADVFDIWGQGTMVTVSS
VL: not shown
B9: H4H14634D (bispecific antibody, human IgG4, V domains shown)
VH 1: QVQLQESGPGLVKPSETLSLTCTVSGDSISSYYWTWIRQPPGKGLEWIGYIFYRGGTTYNPSLKSRVTISVDTSKNQFSLKLRSVTAADTAVYYCARGDDLLVVTSVYWYIDLWGRGTLVTVSS
VH 2: EVQLVESGGGLVQPGGSLRLSCAASGFIVTTNYMTWLRQAPGKGLEWVSLIYSSGHTYYADSVKGRFTISRHNSKNTLYLQMDSLRAEDTAVYYCASAFAADVFDIWGQGTMVTVSS
VL: not shown
B10: H4H14635D (bispecific antibody, human IgG4, V domains shown)
VH 1: QVQLVESGGGVVQPGRSLRVSCVVSGFTFSSFGMHWVRQAPDKGLEWVAVIWYDGSNDYYSDSVKGRFTISRDNSKNTLFLQMNRLRAEDTAVYYCARANNWNRFDAFDLWGQGTMVTVSS
VH 2: EVQLVESGGGLVQPGGSLRLSCAASGFIVTTNYMTWLRQAPGKGLEWVSLIYSSGHTYYADSVKGRFTISRHNSKNTLYLQMDSLRAEDTAVYYCASAFAADVFDIWGQGTMVTVSS
VL: not shown
notes: human IgG4 Fc; also called No. 42; MET×MET bispecific antibody
B11: H4H13312P2 (antibody, human IgG4, V domains shown)
VH: EVQLVESGGGLVQPGGSLRLSCAASGFIVTTNYMTWLRQAPGKGLEWVSLIYSSGHTYYADSVKGRFTISRHNSKNTLYLQMDSLRAEDTAVYYCASAFAADVFDIWGQGTMVTVSS
VL: not shown
B12: H4H14639D (bispecific antibody, V domains shown)
VH 1: EVQLVESGGGLVQPGTSLRLSCAASGFTFDDYAMHWVRQAPGKGLEWVSGITWNSYNIDYADSVKGRFTISRDNAKNSLYLQMNSLRAEDTALYYCAKDDDYSNYVYFDYWGQGTLVTVSS
VH 2: EVQLVESGGGLVQPGGSLRLSCAASGFIVTTNYMTWLRQAPGKGLEWVSLIYSSGHTYYADSVKGRFTISRHNSKNTLYLQMDSLRAEDTAVYYCASAFAADVFDIWGQGTMVTVSS
VL: not shown

How the values were obtained:
[1] = biological target: T1, human MET (c-Met, hepatocyte growth factor receptor), endogenous on human cell lines (human, UniProt P08581 25-1390); experiment: cell-based or functional assay
T1 sequence (P08581 25-1390 limits assumed, form in doubt): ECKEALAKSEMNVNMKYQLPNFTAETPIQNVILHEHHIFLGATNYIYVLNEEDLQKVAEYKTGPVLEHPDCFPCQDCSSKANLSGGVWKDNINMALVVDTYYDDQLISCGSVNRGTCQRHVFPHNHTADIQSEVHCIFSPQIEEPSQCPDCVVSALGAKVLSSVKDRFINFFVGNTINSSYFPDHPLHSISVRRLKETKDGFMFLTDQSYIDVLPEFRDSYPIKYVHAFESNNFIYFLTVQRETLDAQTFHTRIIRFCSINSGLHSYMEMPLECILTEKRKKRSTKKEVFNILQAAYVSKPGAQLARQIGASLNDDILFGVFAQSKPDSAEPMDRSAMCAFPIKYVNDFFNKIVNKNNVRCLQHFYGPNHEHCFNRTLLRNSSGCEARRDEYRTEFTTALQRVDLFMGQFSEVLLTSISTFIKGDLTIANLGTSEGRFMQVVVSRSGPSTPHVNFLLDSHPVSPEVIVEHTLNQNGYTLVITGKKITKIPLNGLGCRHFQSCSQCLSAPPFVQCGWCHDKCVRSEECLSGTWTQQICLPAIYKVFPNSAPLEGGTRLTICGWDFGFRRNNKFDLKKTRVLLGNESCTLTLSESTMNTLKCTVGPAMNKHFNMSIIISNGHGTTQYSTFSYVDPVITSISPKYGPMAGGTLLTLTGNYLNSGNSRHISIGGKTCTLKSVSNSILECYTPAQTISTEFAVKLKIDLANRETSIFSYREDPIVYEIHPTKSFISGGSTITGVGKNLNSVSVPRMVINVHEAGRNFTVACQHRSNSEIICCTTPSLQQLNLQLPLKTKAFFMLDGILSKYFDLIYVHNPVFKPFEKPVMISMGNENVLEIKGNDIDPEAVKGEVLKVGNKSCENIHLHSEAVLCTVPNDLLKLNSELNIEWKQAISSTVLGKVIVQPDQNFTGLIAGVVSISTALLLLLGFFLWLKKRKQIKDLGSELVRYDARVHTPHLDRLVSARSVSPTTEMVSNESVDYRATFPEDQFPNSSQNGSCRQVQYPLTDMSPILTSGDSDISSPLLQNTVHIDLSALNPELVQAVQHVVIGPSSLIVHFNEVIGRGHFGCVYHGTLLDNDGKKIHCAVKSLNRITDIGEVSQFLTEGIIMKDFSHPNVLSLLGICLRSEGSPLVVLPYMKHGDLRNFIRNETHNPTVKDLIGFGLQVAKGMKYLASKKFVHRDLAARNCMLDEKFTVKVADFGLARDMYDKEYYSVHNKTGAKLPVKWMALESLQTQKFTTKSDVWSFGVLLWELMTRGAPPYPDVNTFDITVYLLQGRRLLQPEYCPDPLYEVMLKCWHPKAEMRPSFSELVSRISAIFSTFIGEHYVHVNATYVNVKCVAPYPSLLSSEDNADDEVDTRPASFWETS

[2] = biological target: T1, human MET (c-Met, hepatocyte growth …); experiment: cell-based or functional assay; remark: listed apart in the source
[3] = biological target: T1, human MET (c-Met, hepatocyte growth …); experiment: flow cytometry, MDA-MB-231 cells (endogenous MET, low), antibody 10 ug/ml
Protocol: (§1) After one additional wash with FACS buffer, samples were fixed with Cytofix (BD Biosciences, #554655), filtered with FACS buffer and run on an iQue flow cytometer (Intelicyte). Mean fluorescence intensity (MFI) data was determined using FlowJo software (FlowJo LLC).

[4] = biological target: T1, human MET (c-Met, hepatocyte growth …); experiment: flow cytometry, MKN-45 cells (endogenous MET), antibody 10 ug/ml
Protocol: as §1

[5] = biological target: T1, human MET (c-Met, hepatocyte growth …); experiment: flow cytometry, U87MG cells (endogenous MET, low), antibody 10 ug/ml
Protocol: as §1

[6] = biological target: T1, human MET (c-Met, hepatocyte growth …); experiment: flow cytometry, Hs746t cells (endogenous MET), antibody 10 ug/ml
Protocol: as §1

[7] = biological target: T1, human MET (c-Met, hepatocyte growth …); experiment: flow cytometry, SNU-5 cells (endogenous MET), antibody 10 ug/ml
Protocol: as §1

[8] = biological target: T1, human MET (c-Met, hepatocyte growth …); experiment: flow cytometry, A549 cells (endogenous MET), antibody 10 ug/ml
Protocol: as §1

[9] = biological target: T1, human MET (c-Met, hepatocyte growth …); experiment: flow cytometry, EBC-1 cells (endogenous MET), antibody 10 ug/ml
Protocol: as §1

[10] = biological target: T2, human MET (c-Met, HGFR) endogenously expressed on cell lines (human, UniProt P08581 25-1390); experiment: cell-based or functional assay
T2 sequence (P08581 25-1390): as the sequence (P08581 25-1390 limits assumed, form in doubt) above

[11] = biological target: T2, human MET (c-Met, HGFR) endogenously …; experiment: cell-based or functional assay; remark: listed apart in the source

Row | Binder | % Inhibition (HEK293/SRE-Luc Blocking Activity, 1 h mAb pre-bind) [2] [%] | Fold Response (Ligand (HGF)-Independent HEK293/SRE-Luc Activation) [2] [fold] | IC50 (HEK293/SRE-Luc Blocking Activity, 1 h mAb pre-bind) [2] [pM] | EC50 (Ligand (HGF)-Independent HEK293/SRE-Luc Activation) [2] [pM] | further results
1 | B1 | – | – | – | – | IC50 (nM), 3-day in vitro cytotoxicity assay, MDA-MB-231 cells (low MET) [1]: > 100 nM; IC50 (nM), 3-day in vitro cytotoxicity assay, SNU-5 cells [1]: 0.4 nM; IC50 (nM), 3-day in vitro cytotoxicity assay, U87MG cells (low MET) [1]: 100 nM
2 | B2 | 77 | 3.1 | 100 | – | –
3 | B3 | 69 | 2.8 | 120 | 480 | –
4 | B4 | 56 | 9.8 | < 2 | < 2 | –
5 | B5 | 62 | 5.2 | 35 | 300 | –
6 | B6 | 75 | 7.1 | < 10 | 2.3 | –
7 | B7 | 51 | 14.4 | – | 3.7 | –
8 | B8 | 89 | 2.5 | 520 | 6800 | –
9 | B9 | 85 | 3.4 | 9.7 | 90 | –
10 | B10 | 85 | 2.2 | 190 | 1400 | FACS Binding (MFI Fold Above Isotype Control) [3]: 11 fold; FACS Binding (MFI Fold Above Isotype Control) [4]: 183 fold; FACS Binding (MFI Fold Above Isotype Control) [5]: 18 fold; FACS Binding (MFI Fold Above Isotype Control) [6]: 39 fold; FACS Binding (MFI Fold Above Isotype Control) [7]: 477 fold; FACS Binding (MFI Fold Above Isotype Control) [8]: 12 fold; FACS Binding (MFI Fold Above Isotype Control) [9]: 263 fold
11 | B11 | – | – | – | – | EC50 (read off the curve), HGF-independent SRE-luciferase activation [10]: ~400 pM
12 | B12 | – | – | – | – | IC50 (read off the curve), inhibition of HGF-induced SRE-luciferase signal [11]: ~400 pM
